Measurements as given in paper PMC5816668, “Insights into the inhibitory mechanisms of NADH on the αγ heterodimer of human NAD-dependent isocitrate dehydrogenase” (Scientific Reports, 2018).

Substrate: NC(=O)c1ccc[n+]([C@@H]2O[C@H](COP(=O)(O)OP(=O)(O)OC[C@H]3O[C@@H](n4cnc5c(N)ncnc54)[C@H](O)[C@@H]3O)[C@@H](O)[C@H]2O)c1
Experiment: purified protein
Type: biochemical, Homo sapiens
Conditions: 33 mM Tris-acetate pH 7.4, 2 mM Mn2+, 20 mM DL-isocitrate, 25 °C, no NADH, Michaelis-Menten fit, varied: cofactor

B1: αγ heterodimer of human NAD-IDH (Homo sapiens) (protein)
chain 1: TGGVQTVTLIPGDGIGPEISAAVMKIFDAAKAPIQWEERNVTAIQGPGGKWMIPSEAKESMDKNKMGLKGPLKTPIAAGHPSMNLLLRKTFDLYANVRPCVSIEGYKTPYTDVNIVTIRENTEGEYSGIEHVIVDGVVQSIKLITEGASKRIAEFAFEYARNNHRSNVTAVHKANIMRMSDGLFLQKCREVAESCKDIKFNEMYLDTVCLNMVQDPSQFDVLVMPNLYGDILSDLCAGLIGGLGVTPSGNIGANGVAIFESVHGTAPDIAGKDMANPTALLLSAVMMLRHMGLFDHAARIEAACFATIKDGKSLTKDLGGNAKCSDFTEEICRRVKDLD
chain 2: FSEQTIPPSAKYGGRHTVTMIPGDGIGPELMLHVKSVFRHACVPVDFEEVHVSSNADEEDIRNAIMAIRRNRVALKGNIETNHNLPPSHKSRNNILRTSLDLYANVIHCKSLPGVVTRHKDIDILIVRENTEGEYSSLEHESVAGVVESLKIITKAKSLRIAEYAFKLAQESGRKKVTAVHKANIMKLGDGLFLQCCREVAARYPQITFENMIVDNTTMQLVSRPQQFDVMVMPNLYGNIVNNVCAGLVGGPGLVAGANYGHVYAVFETATRNTGKSIANKNIANPTATLLASCMMLDHLKLHSYATSIRKAVLASMDNENMHTPDIGGQGTTSEAIQDVIRHIRVINGRAVEA
notes: E. coli BL21(DE3) Codon-Plus co-expression from pQlinkN-α-γ-tev-His6; C-terminal His6 of gamma cut with TEV protease; alpha 37 kDa, gamma 39 kDa; heterodimer
With B1 as the protein, how does the K0.5 read?
Its K0.5 is 0.267 ± 0.002 mM.
